Source: patent US20150335719A1, “Intravitreal Injection of a Chimeric Phage Endolysin Ply187; Protection from Staphylococcus aureus Endophthalmitis” (priority 2014, published 2015)

What was measured:
S. aureus RN6390 = assay: Mouse S. aureus endophthalmitis: bacterial burden in eyes (plate count); type: in vivo, C57BL/6 mice; conditions: 24 h after treatment
Description: FIGS. 4 A, B and C depict the effect of chimeric Ply187AN-KSH3b on bacterial growth in vivo and in the vitreous humor (VH) in vitro and with increasing inoculums in vitro respectively. […] Twenty-four hours after the treatment, the eyes were enucleated, homogenized and the bacterial burden was estimated via serial dilution plating. FIG. 4B depicts a test showing the effect of the vitreous humor on Ply187AN-KSH3b antimicrobial activity where Ply187AN-KSH3b was mixed with calf vitreous humor and inoculated with 10^5 CFU of S. aureus. The survival of the bacteria was enumerated by CFU count at 2, 4 and 6 h of incubation. Statistical analysis was performed using unpaired student's t test (*, p<0.05; **, p<0.005; ***, p<0.0005). […] An increasing number of dilutions (1:10,000 to 1:10) of logarithmic phase of S. aureus (RN6390 strain) were treated with Ply187AN-KSH3b for 1 h followed by CFU enumeration on TSA plates. Statistical analysis was performed using unpaired student's t test (*, p<0.05; **, p<0.005; ***, p<0.0005).
The bacterial burden in both chimeric Ply187AN-KSH3b- and vehicle-treated eyes was estimated using a bacterial plate count method. At the desired time point, the eyes were enucleated and homogenized in sterile PBS by stainless steel beads using Tissue lyser (Qiagen, Valencia, Calif.). […] The results were expressed as the mean number of CFU/eye ±SEM.

S. aureus strain RN6390 = assay: Resistance development assay by repeated exposure in an MIC assay; type: cell-based, Staphylococcus aureus; conditions: RN6390, up to 10 rounds of exposure
Method: Error bars represent SEM for three independent experiments performed in triplicates. […] Cells surviving at half (½) of the MIC value were used as an inoculum for each subsequent round of exposure. The change in susceptibility is recorded and presented as fold change resistance from day 1 to 10 of exposure and also after 5 days of growth (without any selection pressure) following the 10th day (represented as 10+5). The data represent means±SEM of two independent experiments performed in triplicate.
To verify and quantify the lytic activity against live S. aureus, we have tested Ply187AN-KSH3b in the Turbidity Reduction Assay. The turbidity assay measures the drop in optical density (OD) resulting from lysis of the target bacteria with the phage endolysin-derived protein. Turbidity reduction assays by chimeric Ply187AN-KSH3b were performed in a 96 well plate as described previously by Becker et al. (2009a, 2009b, supra). Briefly, S. aureus strains/isolates RN6390, USA 300, and clinical isolates R2932, R2952 and R3000 were grown to logarithmic phase (OD600 0.4-0.6) at 37° C. in tryptic Soy broth (TSB). The culture was harvested by centrifugation and the pellet was resuspended in assay buffer (400 mM NaCl, 20 mM Tris HCl, 1% glycerol, pH 7.5). Bacterial cultures (100 μl/well) were mixed with 100 μl of (as per MIC) of chimeric Ply187AN-KSH3b protein diluted in the same assay buffer. The reduction in the turbidity was measured after every 5 min up to 1 h using a micro plate reader. EB diluted in the same assay buffer (without chimeric Ply187AN-KSH3b protein) was used as a control (EB C). Resistance development against chimeric Ply187AN-KSH3b was tested using repeated exposure in an MIC assay as described by Rodriguez-Rubio and co-workers (Rodriguez-Rubio et al., PLoS One 8:e64671.). In brief, bacterial cultures (10^5 CFU/well) were exposed overnight to a 2-fold serial dilution of chimeric Ply187AN-KSH3b, lysostaphin, and gentamicin, where the latter serve as controls. […]

[1] = system: inflammatory cytokines/chemokines in S. aureus-infected eyes; assay: Mouse S. aureus endophthalmitis: inflammatory cytokines/chemokines by ELISA; type: in vivo, C57BL/6 mice
Method: Following treatment with chimeric Ply187AN-KSH3b or EB (EB C), the eyes (n=4 per time point) were enucleated and 10 μg protein lysate was used for the detection of indicated inflammatory cytokines/chemokines by ELISA. *p<0.05, **p<0.005 (student t-test, SA or EB vs. Ply187AN-KSH3b-treated)
To measure the inflammatory cytokines, retinal extracts were processed by homogenization in 250 μl of PBS, followed by centrifugation at 12,000×g for 10 min. PBS-injected mice were used as normal controls (PBS C) and EB-treated mice were used as vehicle controls (EB C). The protein concentration of the retinal lysate was determined by the Micro BCA™ protein assay kit (Thermoscientific, Rockford, Ill.). Equal amounts of protein were used to perform the ELISA, per the manufacturer's instructions (BD biosciences, San Diego, Calif. (IL-6, IL1β & TNFα) and R & D systems, Minneapolis, Minn. (MIP2 & KC).

staphylococci = conditions: Mao et al.; cited from earlier work
[2] = system: S. aureus R 3000 (HA-MRSA); assay: MIC against S. aureus strains (Table 1); type: cell-based, Staphylococcus aureus; conditions: mean of three experiments ± SEM
Method: (§1) For in vivo studies, an antibiotic sensitive S. aureus (SA) strain RN6390 was used to induce endophthalmitis; whereas, the in vitro studies were performed using antibiotic-resistant strains (Table 1), including USA300, a community-associated methicillin resistant S. aureus (CA-MRSA), and three clinical isolates R2932 (CA-MRSA), R2952 and R3000 (both being hospital-associated MRSA, […]), […]) kindly provided by Dr. Michael J. Rybak (Department of Pharmaceutical Sciences, Wayne State University, Detroit, Mich.). All bacteria were routinely cultured in TSB broth (Tryptic Soy broth, Sigma, St Louis, Mo.) or on TSB agar plates.
(§2) To verify and quantify the lytic activity against live S. aureus, we have tested Ply187AN-KSH3b in the Turbidity Reduction Assay. The turbidity assay measures the drop in optical density (OD) resulting from lysis of the target bacteria with the phage endolysin-derived protein. Turbidity reduction assays by chimeric Ply187AN-KSH3b were performed in a 96 well plate as described previously by Becker et al. (2009a, 2009b, supra). Briefly, S. aureus strains/isolates RN6390, USA 300, and clinical isolates R2932, R2952 and R3000 were grown to logarithmic phase (OD600 0.4-0.6) at 37° C. in tryptic Soy broth (TSB). The culture was harvested by centrifugation and the pellet was resuspended in assay buffer (400 mM NaCl, 20 mM Tris HCl, 1% glycerol, pH 7.5). Bacterial cultures (100 μl/well) were mixed with 100 μl of (as per MIC) of chimeric Ply187AN-KSH3b protein diluted in the same assay buffer. The reduction in the turbidity was measured after every 5 min up to 1 h using a micro plate reader. EB diluted in the same assay buffer (without chimeric Ply187AN-KSH3b protein) was used as a control (EB C). Resistance development against chimeric Ply187AN-KSH3b was tested using repeated exposure in an MIC assay as described by Rodriguez-Rubio and co-workers (Rodriguez-Rubio et al., PLoS One 8:e64671.). In brief, bacterial cultures (10^5 CFU/well) were exposed overnight to a 2-fold serial dilution of chimeric Ply187AN-KSH3b, lysostaphin, and gentamicin, where the latter serve as controls. In every round, 100 μl culture from the wells with growth (½ MIC value) were inoculated into fresh TSB and grown up to logarithmic phase. These cultures were used for the next round of MIC exposure. Bacteria surviving after 10 rounds were grown for an additional 5 rounds in TSB without any selection pressure to allow phenotype-reversion, then MIC were performed to measure the sensitivity to the chimeric Ply187AN-KSH3b after non-selective growth.

[3] = system: S. aureus USA 300 (CA-MRSA); assay: MIC against S. aureus strains (Table 1); type: cell-based, Staphylococcus aureus; conditions: mean of three experiments ± SEM
Method: as §1, §2

[4] = system: S. aureus R 2932 (CA-MRSA); assay: MIC against S. aureus strains (Table 1); type: cell-based, Staphylococcus aureus; conditions: mean of three experiments ± SEM
Method: as §1, §2

[5] = system: S. aureus R 2952 (HA-MRSA); assay: MIC against S. aureus strains (Table 1); type: cell-based, Staphylococcus aureus; conditions: mean of three experiments ± SEM
Method: as §1, §2

[6] = 6 h and 12 h treatment, vs vehicle-treated and S. aureus control eyes

B1: Ply187AN-KSH3b: staphylococcal peptidoglycan hydrolase fusion protein: endopeptidase domain of prophage endolysin Ply187 plus SH3b cell wall-binding domain of phage K endolysin LysK (SEQ ID NO:1) (protein)
chain: MALPKTGKPTAKQVVDWAINLIGSGVDVDGYYGRQCWDLPNYIFNRYWNFKTPGNARDMAWYRYPEGFKVFRNTSDFVPKPGDIAVWTGGNYNWNTWGHTGIVVGPSTKSYFYSVDQNWNNSNSYVGSPAAKIKHSYFGVTHFVRPAYKAEPKPTPPLESTPATRPVTGSWKKNQYGTWYKPENATFVNGNQPIVTRIGSPFLNAPVGGNLPAGATIVYDEVCIQAGHIWIGYNAYNGNRVYCPVRTCQGVPPNQIPGVAWGVFKVEHHHHHH
modifications: Chemically Synthesized Fusion Protein
bacterial burden recovered (S. aureus RN6390; treatment 6 h post infection): 3.6×10^3 CFU/eye
bacterial burden recovered (S. aureus RN6390; treatment 12 h post infection): 2.9×10^4 CFU/eye
fold change in resistance (S. aureus strain RN6390): failed to develop any resistance
level of IL-1β [1, 6]: dramatically reduced levels
level of IL-6 [1, 6]: dramatically reduced levels
level of KC (CXCL1) [1, 6]: dramatically reduced levels
level of MIP2 (CXCL2) [1, 6]: dramatically reduced levels
level of TNFα [1, 6]: dramatically reduced levels
MIP-2 reduction, 6 h compared with 12 h treatment ([1]; 6 h vs. 12 h treatment): greater reduction after 6 h vs. 12 h treatment
antimicrobial effectiveness relative to Ply187, Ply187AN and LysK (staphylococci): more effective antimicrobial than the full-length Ply187 or the truncated Ply187 (Ply187AN)
MIC [2]: 4.16 ± 1.04 µg/mL
MIC [3]: 4.16 ± 1.04 µg/mL
MIC [4]: 4.16 ± 1.04 µg/mL
MIC [5]: 8.33 ± 2.08 µg/mL
